{"source": "paper PMC3839042", "key": {"human S100A2 (human)": {"target": "human S100A2 (human) (UniProt P29034)", "sequence (P29034 whole entry)": "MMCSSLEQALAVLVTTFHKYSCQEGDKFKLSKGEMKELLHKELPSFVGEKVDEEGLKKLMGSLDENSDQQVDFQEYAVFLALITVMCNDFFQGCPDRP", "assay": "ITC"}, "human S100B (human)": {"target": "human S100B (human) (UniProt P04271)", "sequence (P04271 whole entry)": "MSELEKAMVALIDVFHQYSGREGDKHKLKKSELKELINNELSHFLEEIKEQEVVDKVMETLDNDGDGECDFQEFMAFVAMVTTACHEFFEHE", "assay": "ITC"}}, "data": [{"substance": "TRTK12 wild-type peptide (Ac-…-NH2)", "values": [{"measurement": "stoichiometry N (peptides per S100A2 dimer)", "setting": "human S100A2 (human)", "value": 2}, {"measurement": "stoichiometry N (peptides per S100B dimer)", "setting": "human S100B (human)", "value": 2}]}]}
